Experimental findings from US20040214255A1 (MYRIAD GENETICS, published 2004) are described below.

T1: 14-3-3-Zeta, amino acids 1-200 (human, UniProt P63104 1-200)
T1 sequence: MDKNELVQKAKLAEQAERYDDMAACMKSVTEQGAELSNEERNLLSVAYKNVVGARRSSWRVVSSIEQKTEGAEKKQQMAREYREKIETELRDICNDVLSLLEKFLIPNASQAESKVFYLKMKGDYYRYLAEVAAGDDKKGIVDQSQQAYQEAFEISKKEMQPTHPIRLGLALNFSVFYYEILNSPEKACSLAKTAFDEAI

T2: Alpha-SNAP, amino acids 36-241 (human, UniProt P54920 36-241)
T2 construct: range 36-241
T2 sequence (looked up): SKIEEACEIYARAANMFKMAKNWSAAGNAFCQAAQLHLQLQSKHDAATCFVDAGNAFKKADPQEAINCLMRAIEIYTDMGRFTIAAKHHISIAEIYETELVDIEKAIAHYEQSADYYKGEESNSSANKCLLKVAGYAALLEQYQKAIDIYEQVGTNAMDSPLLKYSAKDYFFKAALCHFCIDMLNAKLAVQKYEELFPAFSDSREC

T3: Beta-catenin, amino acids 579-782 (human, UniProt P35222 579-781)
T3 construct: range 579-782
T3 sequence (looked up): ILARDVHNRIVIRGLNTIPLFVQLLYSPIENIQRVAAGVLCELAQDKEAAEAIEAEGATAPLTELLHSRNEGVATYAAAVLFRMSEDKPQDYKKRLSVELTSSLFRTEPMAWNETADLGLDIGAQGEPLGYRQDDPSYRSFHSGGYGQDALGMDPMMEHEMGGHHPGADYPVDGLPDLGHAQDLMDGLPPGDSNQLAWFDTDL

B1: Insulin-Regulated Membrane-Spanning Aminopeptidase (IRAP), amino acids 750-1026 (enzyme, human, UniProt Q9UIQ6 750-1025, looked up)
chain: FDLINYLGNENHTAPITEALFQTDLIYNLLEKLGYMDLASRLVTRVFKLLQNQIQQQTWTDEGTPSMRELRSALLEFACTHNLGNCSTTAMKLFDDWMASNGTQSLPTDVMTTVFKVGAKTDKGWSFLLGKYISIGSEAEKNKILEALASSEDVRKLYWLMKSSLNGDNFRTQKLSFIIRTVGRHFPGHLLAWDFVKENWNKLVQKFPLGSYTIQNIVAGSTYLFSTKTHLSEVQAFFENQSEATFRLRCVQEALEVIQLNIQWMEKNLKSLTWWL
notes: range 750-1026; also called C-terminal portion of IRAP
B2: Tankyrase, amino acids 603-725 (enzyme, human, UniProt O95271 603-725, looked up)
chain: HLQTCRLLLSYGSDPSIISLQGFTAAQMGNEAVQQILSESTPIRTSDVDYRLLEASKAGDLETVKQLCSSQNVNCRDLEGRHSTPLHFAAGYNRVSVVEYLLHHGADVHAKDKGGLVPLHNAC
notes: range 603-725
B3: PP5, amino acids 1-150 (enzyme, human, UniProt P53041 1-150, looked up)
chain: MAMAEGERTECAEPPRDEPPADGALKRAEELKTQANDYFKAKDYENAIKFYSQAIELNPSNAIYYGNRSLAYLRTECYGYALGDATRAIELDKKYIKGYYRRAASNMALGKFRAALRDYETVVKVKPHDKDAKMKYQECNKIVKQKAFER
notes: range 1-150; also called Protein phosphatase 5
B4: Glucose Transporter 4, amino acids 463-510 (other, human, UniProt P14672 463-509, looked up)
chain: FTFLRVPETRGRTFDQISAAFHRTPSLLEQEVKPSTELEYLGPDEND
notes: range 463-510; also called GLUT4; Glut4

For test [1], the target named is T4, β-Spectrin, amino acids 1592-2096 (human, UniProt Q01082 1592-2096).
T4 construct: range 1592-2096; also called non-erythrocytic beta-spectrin; beta spectrin
The experiment in a line: yeast two-hybrid. The source says:
(§1) The new construct was selected directly in the yeast strain PNY200 for its ability to drive tryptophane synthesis (genotype of this strain: […] trp1-901 leu2-3,112 ura3-52 his3-200 ade2 gal4Δ gal80). In these yeast cells, the bait was produced as a C-terminal fusion protein with the DNA binding domain of the transcription factor Ga14 (amino acids 1 to 147). Prey libraries were transformed into the yeast strain BK100 (genotype of this strain: MATα trp1-901 leu2-3,112 ura3-52 his3-200 gal4Δ gal80 LYS2::GAL-HIS3 GAL2-ADE2 met2::GAL7-lacZ), and selected for the ability to drive leucine synthesis. In these yeast cells, each cDNA was expressed as a fusion protein with the transcription activation domain of the transcription factor Ga14 (amino acids 768 to 881) and a 9 amino acid hemagglutinin epitope tag. PNY200 cells (MATα mating type), expressing the bait, were then mated with BK100 cells (MATa mating type), expressing prey proteins from a prey library. The resulting diploid yeast cells expressing proteins interacting with the bait protein were selected for the ability to synthesize tryptophan, leucine, histidine, and adenine. DNA was prepared from each clone, transformed by electroporation into E. coli strain KC8 (Clontech KC8 electrocompetent cells, Catalog No. C2023-1), and the cells were selected on ampicillin-containing plates in the absence of either tryptophane (selection for the bait plasmid) or leucine (selection for the library plasmid). DNA for both plasmids was prepared and sequenced by the dideoxynucleotide chain termination method. The identity of the bait cDNA insert was confirmed and the cDNA insert from the prey library plasmid was identified using the BLAST program to search against public nucleotide and protein databases. Plasmids from the prey library were then individually transformed into yeast cells together with a plasmid driving the synthesis of lamin and 5 other test proteins, respectively, fused to the Ga14 DNA binding domain. Clones that gave a positive signal in the β-galactosidase assay were considered false-positives and discarded. […] Clones that gave a positive signal in the β-galactosidase assay were considered true positives.

The test “PP5, amino acids 1-150” deals with B3. Put plainly: yeast two-hybrid.
Excerpt: as §1

Test [2] deals with T5, HSP89, amino acids 537-700 (human, UniProt P07900 537-700).
T5 construct: range 537-700
The experiment in a line: yeast two-hybrid.
Excerpt: as §1

The target of test [3] is T1, 14-3-3-Zeta, amino acids 1-200. Put plainly: yeast two-hybrid; GLUT4 463-510 with 14-3-3-Zeta 1-200. The source says: The new construct was selected directly in the yeast strain PNY200 for its ability to drive tryptophane synthesis (genotype of this strain: MATα trp1-901 leu2-3,112 ura3-52 his3-200 ade2 gal4Δ gal80). In these yeast cells, the bait was produced as a C-terminal fusion protein with the DNA binding domain of the transcription factor Ga14 (amino acids 1 to 147). Prey libraries were transformed into the yeast strain BK100 (genotype of this strain: MATα trp1-901 leu2-3,112 ura3-52 his3-200 gal4Δ gal80 LYS2::GAL-HIS3 GAL2-ADE2 met2::GAL7-lacZ), and selected for the ability to drive leucine synthesis. In these yeast cells, each cDNA was expressed as a fusion protein with the transcription activation domain of the transcription factor Ga14 (amino acids 768 to 881) and a 9 amino acid hemagglutinin epitope tag. PNY200 cells (MATα mating type), expressing the bait, were then mated with BK100 cells (MATa mating type), expressing prey proteins from a prey library. The resulting diploid yeast cells expressing proteins interacting with the bait protein were selected for the ability to synthesize tryptophan, leucine, histidine, and adenine. […]

Test [4] has as its target T2, Alpha-SNAP, amino acids 36-241. Put plainly: yeast two-hybrid.
Excerpt: as §1

Test [5] addresses T3, Beta-catenin, amino acids 579-782. The experiment in a line: yeast two-hybrid.
Excerpt: as §1

The target of test [6] is T6, Clone C-193 (CARP), amino acids 21-302 (human, UniProt Q15327 21-302).
T6 construct: range 21-302
Put plainly: yeast two-hybrid.
Excerpt: as §1

T6 sequence (Q15327 21-302 limits assumed): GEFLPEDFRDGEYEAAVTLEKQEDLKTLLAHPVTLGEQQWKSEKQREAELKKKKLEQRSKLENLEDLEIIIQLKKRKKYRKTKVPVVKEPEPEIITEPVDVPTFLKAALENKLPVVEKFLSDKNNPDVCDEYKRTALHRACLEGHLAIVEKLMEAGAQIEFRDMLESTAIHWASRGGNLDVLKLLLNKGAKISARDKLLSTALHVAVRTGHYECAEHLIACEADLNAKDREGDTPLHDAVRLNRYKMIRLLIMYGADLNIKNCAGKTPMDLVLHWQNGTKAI
T4 sequence (Q01082 1592-2096): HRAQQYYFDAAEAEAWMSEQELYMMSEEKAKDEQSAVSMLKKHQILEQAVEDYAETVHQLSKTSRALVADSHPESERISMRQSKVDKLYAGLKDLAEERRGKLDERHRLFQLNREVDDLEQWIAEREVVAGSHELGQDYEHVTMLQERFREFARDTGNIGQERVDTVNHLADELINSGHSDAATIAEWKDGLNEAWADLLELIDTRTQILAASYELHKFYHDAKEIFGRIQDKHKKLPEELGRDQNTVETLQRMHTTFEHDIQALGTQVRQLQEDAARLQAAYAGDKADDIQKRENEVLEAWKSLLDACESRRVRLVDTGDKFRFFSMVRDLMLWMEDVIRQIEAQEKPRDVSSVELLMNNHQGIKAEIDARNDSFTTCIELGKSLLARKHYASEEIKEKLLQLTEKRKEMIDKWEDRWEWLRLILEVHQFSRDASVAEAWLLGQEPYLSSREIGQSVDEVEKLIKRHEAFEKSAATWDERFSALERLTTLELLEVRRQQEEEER
T5 sequence (P07900 537-700): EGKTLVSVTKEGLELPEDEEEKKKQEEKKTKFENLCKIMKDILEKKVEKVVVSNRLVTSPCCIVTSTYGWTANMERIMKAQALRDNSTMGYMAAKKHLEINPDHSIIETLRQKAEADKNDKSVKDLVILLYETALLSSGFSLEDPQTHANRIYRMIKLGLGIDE

Take B1: in test [1], the binding result is given as “binds”. On to B2, for which the binding result with PP5, amino acids 1-150 is “binds”. With B3, in test [2], the binding result is “binds”. Take B4: the binding result in test [3], in test [4], in test [5] and in test [6] was “binds” in each case.
